From patent US20220348647A1 (published 2022) come the findings set out here.

One may read the Kd as the constant that tells how readily two partners part at equilibrium. A high value points to a looser complex.

Test [1] deals with T1, human CCL17 (human, UniProt Q92583 24-94).
T1 sequence: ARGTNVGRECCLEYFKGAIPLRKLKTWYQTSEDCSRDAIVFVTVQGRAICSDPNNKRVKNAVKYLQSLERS
The experiment in a line: cell-based or functional assay.

For test [2], the target named is T2, cyno CCL17 (Macaca fascicularis (cyno), UniProt Q8HYP9 24-94 (rhesus entry)).
T2 sequence: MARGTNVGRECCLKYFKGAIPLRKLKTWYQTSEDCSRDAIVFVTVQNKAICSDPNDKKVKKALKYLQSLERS
Kind of test: cell-based or functional assay.

Test [3] deals with T1, human CCL17. The experiment in a line: cell-based or functional assay. The source holds these as a separate data set.
Test [4] addresses T2, cyno CCL17. Kind of test: cell-based or functional assay. The source holds these as a separate data set.
Test [5] has as its target T1, human CCL17. The experiment in a line: solution equilibrium affinity (MSD-SEA), IgG1. Here is the method: (§1) Equal volumes of the anti-hCCL17 mAbs at 40 pM or 200 pM were added to each chemokine dilution to obtain mixtures containing the serial dilution of chemokines starting at a final concentration of […] and a constant concentration (20 pM or 100 pM) of anti-CCL17 antibody. The mixtures were prepared in duplicate and incubated at 4° C. for 48 hours to reach equilibrium. The free antibody was detected using a SECTOR Imager 6000 (Meso Scale Discovery) instrument. The resulting binding curves were fitted to obtain the dissociation equilibrium constant (KD) using the GraphPad Prism software (v 5.01) using a 1:1 binding model to perform nonlinear least-square regression analysis of the data.

The target in test [6] is T2, cyno CCL17. Kind of test: solution equilibrium affinity (MSD-SEA), IgG1. Here is the method:
as §1

The target in test [7] is T1, human CCL17. Kind of test: MSD-SEA; affinity for human CCL17 against that for cyno CCL17. Here is the method:
as §1

Test [8] concerns the target T1, human CCL17. The experiment in a line: not stated in the legend (affinities by MSD-SEA in Examples 3 and 4).
The target of test [9] is T1, human CCL17. The experiment in a line: solution equilibrium affinity (MSD-SEA), TBST, 48 h at 4 °C. Here is the method: as §1
The target in test [10] is T2, cyno CCL17. The test is described as above. The procedure:
as §1

B1: C17B302 (antibody, human IgG2, kappa, V domains shown)
VH: EVQLVQSGAEVKKPGESLKISCKGSGYSFTSYWIGWVRQMPGKGLEWMGIIDPSDSDTRYSPSFQGQVTISADKSISTAYLQWSSLKASDTAMYYCARVGPADVWDAFDYWGQGTLVTVSS
VL: DIVMTQSPDSLAVSLGERATINCKSSQSVLLSFDNINKLAWYQQKPGQPPKLLIYDASTRESGVPDRFSGSGSGTDFTLTISSLQAEDVAVYYCQQFYSVPSTFGQGTKVEIKR
With B1, the “IC50 (nM), calcium flux assay in CCRF-CEM cells, 10 ng/ml human CCL17” value with human CCL17 [1] came to 0.593 nM. Besides, the “IC50 (nM), calcium flux assay in CCRF-CEM cells, 5 ng/ml cyno CCL17” value in the test with cyno CCL17 [2] came to 0.238 nM. Also, the “IC50 (nM), β-arrestin assay, Hek293 cells co-expressing CCR4, 20 nM CCL17” value (shortened to “IC50 (nM), β-arrestin assay”) was 13.9 nM with human CCL17 [3] and 13.4 nM with cyno CCL17 [4].

B2: C17B311 (antibody, V domains shown)
VH: EVQLVQSGAEVKKPGESLKISCKGSGYSFTSYWIGWVRQMPGKGLEWMGIIDPSDSDTRYSPSFQGQVTISADKSISTAYLQWSSLKASDTAMYYCARVGPADVWDAFDYWGQGTLVTVSS
VL: DIVMTQSPDSLAVSLGERATINCKSSQSVLLSFDNINKLAWYQQKPGQPPKLLIYDASTRESGVPDRFSGSGSGTDFTLTISSLQAEDVAVYYCQQFYSVPSTFGQGTKVEIK
B2: the “IC50 (nM), calcium flux assay in CCRF-CEM cells, 10 ng/ml human CCL17” value in the test with human CCL17 [1] was 0.553 nM. The “IC50 (nM), calcium flux assay in CCRF-CEM cells, 5 ng/ml cyno CCL17” value in the test with cyno CCL17 [2] came out at 0.239 nM. In addition, the “IC50 (nM), β-arrestin assay” value came out at 10.7 nM in the test with human CCL17 [3] and 10.3 nM with cyno CCL17 [4].

B3: C17B264 (antibody, IgG1, V domains shown)
VH: EVQLVQSGAEVKKPGESLKISCKGSGYSFTSYWIGWVRQMPGKGLEWMGIIDPSDSDTRYSPSFQGQVTISADKSISTAYLQWSSLKASDTAMYYCARVGPADVWDSFDYWGQGTLVTVSS
VL: DIVMTQSPDSLAVSLGERATINCKSSQSVLLSFDNINKLAWYQQKPGQPPKLLIYIASTRESGVPDRFSGSGSGTDFTLTISSLQAEDVAVYYCQQFYSVPSTFGQGTKVEIK
notes: Expressed as IgG1; Light chain N50I (Kabat) variant of C17B234
B3: the dissociation constant Kd in the test with human CCL17 [5] is 0.0004 nM; in the test with cyno CCL17 [6], 0.0718 nM. The “Fold binding human/cyno CCL17” value with human CCL17 [7] was 180 fold.

B4: C17B234 (antibody, V domains shown)
VH: EVQLVQSGAEVKKPGESLKISCKGSGYSFTSYWIGWVRQMPGKGLEWMGIIDPSDSDTRYSPSFQGQVTISADKSISTAYLQWSSLKASDTAMYYCARVGPADVWDSFDYWGQGTLVTVSS
VL: DIVMTQSPDSLAVSLGERATINCKSSQSVLLSFDNINKLAWYQQKPGQPPKLLIYNASTRESGVPDRFSGSGSGTDFTLTISSLQAEDVAVYYCQQFYSVPSTFGQGTKVEIK
notes: Full IgG1, kappa
Regarding B4, the Kd with human CCL17 [8] is at most 100 nM; with human CCL17 [9], 0.002 nM; with cyno CCL17 [10], 0.23 nM. The “IC50 (nM), calcium flux assay in CCRF-CEM cells, 10 ng/ml human CCL17” value with human CCL17 [1] was found to be 0.421 nM. In addition, the “IC50 (nM), calcium flux assay in CCRF-CEM cells, 5 ng/ml cyno CCL17” value in the test with cyno CCL17 [2] was 0.369 nM. In addition, the “Fold binding human/cyno CCL17” value in the test with human CCL17 [7] came out at 115 fold. Further, the “IC50 (nM), β-arrestin assay” value with human CCL17 [3] stood at 8.42 nM; with cyno CCL17 [4], 5.39 nM.

B5: C17B258 (antibody, IgG1, V domains shown)
VH: EVQLVQSGAEVKKPGESLKISCKGSGYSFTSYWIGWVRQMPGKGLEWMGIIDPSDSDTRYSPSFQGQVTISADKSISTAYLQWSSLKASDTAMYYCARVGPADVWDSFDYWGQGTLVTVSS
VL: DIVMTQSPDSLAVSLGERATINCKSSQSVLLSFDNINKLAWYQQKPGQPPKLLIYDASTRESGVPDRFSGSGSGTDFTLTISSLQAEDVAVYYCQQFYSVPSTFGQGTKVEIK
notes: Expressed as IgG1; Light chain N50D (Kabat) variant of C17B234
As for B5, the results for the Kd in the test with human CCL17 [5] and in the test with cyno CCL17 [6] were 0.0001 nM and 0.0416 nM, respectively. The “Fold binding human/cyno CCL17” value with human CCL17 [7] came to 416 fold.

B6: C17B263 (antibody, IgG1, V domains shown)
VH: EVQLVQSGAEVKKPGESLKISCKGSGYSFTSYWIGWVRQMPGKGLEWMGIIDPSDSDTRYSPSFQGQVTISADKSISTAYLQWSSLKASDTAMYYCARVGPADVWDSFDYWGQGTLVTVSS
VL: DIVMTQSPDSLAVSLGERATINCKSSQSVLLSFDNINKLAWYQQKPGQPPKLLIYTASTRESGVPDRFSGSGSGTDFTLTISSLQAEDVAVYYCQQFYSVPSTFGQGTKVEIK
notes: Expressed as IgG1; Light chain N50T (Kabat) variant of C17B234
For B6, the Kd with human CCL17 [5] was 0.0001 nM; with cyno CCL17 [6], 0.0756 nM. Besides, the “Fold binding human/cyno CCL17” value with human CCL17 [7] is 756 fold.

B7: C17B262 (antibody, IgG1, V domains shown)
VH: EVQLVQSGAEVKKPGESLKISCKGSGYSFTSYWIGWVRQMPGKGLEWMGIIDPSDSDTRYSPSFQGQVTISADKSISTAYLQWSSLKASDTAMYYCARVGPADVWDSFDYWGQGTLVTVSS
VL: DIVMTQSPDSLAVSLGERATINCKSSQSVLLSFDNINKLAWYQQKPGQPPKLLIYSASTRESGVPDRFSGSGSGTDFTLTISSLQAEDVAVYYCQQFYSVPSTFGQGTKVEIK
notes: Expressed as IgG1; Light chain N50S (Kabat) variant of C17B234
On to B7, for which the Kd with human CCL17 [5] is 0.0003 nM; with cyno CCL17 [6], 0.0555 nM. Further, the “Fold binding human/cyno CCL17” value in the test with human CCL17 [7] came out at 185 fold.

B8: C17B260 (antibody, IgG1, V domains shown)
VH: EVQLVQSGAEVKKPGESLKISCKGSGYSFTSYWIGWVRQMPGKGLEWMGIIDPSDSDTRYSPSFQGQVTISADKSISTAYLQWSSLKASDTAMYYCARVGPADVWDSFDYWGQGTLVTVSS
VL: DIVMTQSPDSLAVSLGERATINCKSSQSVLLSFDNINKLAWYQQKPGQPPKLLIYGASTRESGVPDRFSGSGSGTDFTLTISSLQAEDVAVYYCQQFYSVPSTFGQGTKVEIK
notes: Expressed as IgG1; Light chain N50G (Kabat) variant of C17B234
Take B8: the Kd amounted to 0.0005 nM with human CCL17 [5] and 0.0364 nM with cyno CCL17 [6]. In addition, the “Fold binding human/cyno CCL17” value with human CCL17 [7] came to 72.8 fold.

B9: C17B294 (antibody, IgG1, V domains shown)
VH: EVQLVQSGAEVKKPGESLKISCKGSGYSFTSYWIGWVRQMPGKGLEWMGIIDPSDSDTRYSPSFQGQVTISADKSISTAYLQWSSLKASDTAMYYCARVGPADVWDTFDYWGQGTLVTVSS
VL: DIVMTQSPDSLAVSLGERATINCKSSQSVLLSFDNINKLAWYQQKPGQPPKLLIYDASTRESGVPDRFSGSGSGTDFTLTISSLQAEDVAVYYCQQFYSVPSTFGQGTKVEIK
notes: Expressed as IgG1; Heavy chain S100cT (Kabat) paired with the light chain of C17B258
As to B9, the equilibrium dissociation constant (Kd) with human CCL17 [5] is 0.001 nM; with cyno CCL17 [6] it was 0.022 nM; with human CCL17 [8] it was at most 100 nM. For the same molecule, the “Fold binding human/cyno CCL17” value with human CCL17 [7] is 22 fold.

B10: C17B293 (antibody, IgG1, V domains shown)
VH: EVQLVQSGAEVKKPGESLKISCKGSGYSFTSYWIGWVRQMPGKGLEWMGIIDPSDSDTRYSPSFQGQVTISADKSISTAYLQWSSLKASDTAMYYCARVGPADVWDAFDYWGQGTLVTVSS
VL: DIVMTQSPDSLAVSLGERATINCKSSQSVLLSFDNINKLAWYQQKPGQPPKLLIYDASTRESGVPDRFSGSGSGTDFTLTISSLQAEDVAVYYCQQFYSVPSTFGQGTKVEIK
notes: Expressed as IgG1; Heavy chain S100cA (Kabat) paired with the light chain of C17B258; also called C17M293
With B10, the Kd with human CCL17 [5] was under 0.0001 nM; in the test with cyno CCL17 [6], 0.039 nM; in the test with human CCL17 [8], at most 100 nM.

B11: C17B295 (antibody, IgG1, V domains shown)
VH: EVQLVQSGAEVKKPGESLKISCKGSGYSFTSYWIGWVRQMPGKGLEWMGIIDPSDSDTRYSPSFQGQVTISADKSISTAYLQWSSLKASDTAMYYCARVGPADVWESFDYWGQGTLVTVSS
VL: DIVMTQSPDSLAVSLGERATINCKSSQSVLLSFDNINKLAWYQQKPGQPPKLLIYDASTRESGVPDRFSGSGSGTDFTLTISSLQAEDVAVYYCQQFYSVPSTFGQGTKVEIK
notes: Expressed as IgG1; Heavy chain D100bE (Kabat) paired with the light chain of C17B258
Consider B11, for which the Kd is 0.175 nM with human CCL17 [5] and 29.9 nM with cyno CCL17 [6]. The “Fold binding human/cyno CCL17” value in the test with human CCL17 [7] is 171 fold.
